Laboratory results reported in article PMC4150532.

Tests used:
[1] = molecular target: T1, GST-Elp1 CTD (Saccharomyces cerevisiae) (UniProt Q06706); experiment: EMSA; conditions: native tRNA modifications; 5' phosphate removed, then 5' 32P-labelled; 20 mM Tris-HCl pH 7.5, 150 mM NaCl, 2 mM MgCl2, 8% glycerol, 10 U Ribolock; 45 min at room temperature; 1.5% native agarose gel in 0.5x TBE
T1 sequence: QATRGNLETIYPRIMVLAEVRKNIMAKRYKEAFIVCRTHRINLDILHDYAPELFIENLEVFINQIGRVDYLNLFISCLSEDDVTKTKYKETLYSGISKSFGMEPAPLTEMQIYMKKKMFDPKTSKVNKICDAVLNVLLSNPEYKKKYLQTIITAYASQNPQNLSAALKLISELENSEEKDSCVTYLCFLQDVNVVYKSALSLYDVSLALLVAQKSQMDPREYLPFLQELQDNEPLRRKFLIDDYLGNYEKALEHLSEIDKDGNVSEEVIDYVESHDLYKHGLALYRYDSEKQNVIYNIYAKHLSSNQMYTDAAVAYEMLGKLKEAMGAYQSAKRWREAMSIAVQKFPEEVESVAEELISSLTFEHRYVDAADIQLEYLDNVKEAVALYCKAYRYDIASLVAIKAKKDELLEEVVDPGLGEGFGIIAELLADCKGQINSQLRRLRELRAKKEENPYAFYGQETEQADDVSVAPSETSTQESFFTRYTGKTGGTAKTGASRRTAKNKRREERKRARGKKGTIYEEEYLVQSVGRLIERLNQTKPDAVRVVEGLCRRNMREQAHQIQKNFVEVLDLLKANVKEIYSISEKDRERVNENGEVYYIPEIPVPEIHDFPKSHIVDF

[2] = molecular target: Elp1–KR9A–GFP (GFP-tagged Elp1 basic region mutant, nine basic residues to alanine) (S. cerevisiae) (UniProt Q06706); experiment: co-IP; GFP–Trap beads precipitate the GFP-tagged protein from yeast lysate; HA-tagged partners found by anti-HA blot and measured by densitometry; lysis buffer 50 mM HEPES-KOH pH 7.5, 150 mM NaCl, 2 mM MgCl2, 0.1% Triton X-100; 4°C

total yeast tRNA (Sigma R9001)
Kd [1]: 550 nM

B1: Kti12-3HA (HA-tagged Elongator accessory protein Kti12) (natural protein)
chain: MPLVLFTGYPCSGKTTLAKHLVQLLQSKIDATPSLSKYSITYHSDESLGIKHSDYITSQDERKLRSEIISAVKRDLSKNKIVIVDSLNYIKGFRYQLHCEVKNLSTTFCVIQTLCPPETIFEWNKTSNPNPWEPELLNQLIQRYEEPNSSNRWDSPLFAILTPQDNITDYIDDICKVVFQTSKSAKNSGHNDPLSKGLQKPNSATVLKPASQSNFIQVLDIETSKIIKTIMNHIKSLTSIGGVSNGTRVIVSEGITDINDDGCFFVDLPIGNVVTLAQLQRLKRQFINFNKLRDIDQDRIGPLFADYLNKNLN
percent less co-precipitated than with wild-type Elp1–GFP (densitometry) [2]: 40%

B2: Elp5-3HA (HA-tagged Elp5 subunit of Elongator) (natural protein)
chain: MASSSHNPVILLKRILSLTESSPFILCLDSIAQTSYKLIQEFVHQSKSKGNEYPIVYISFETVNKPSYCTQFIDATQMDFVHLVKQIISYLPAATATQAKKHMVIIDSLNYISTEYITRFLSEIASPHCTMVATYHKDIKDENRTVIPDWNNNYPDKLTLLQFMATTIVDIDVVLTGTLDTEEVSELLNEFRIPRGLNNDIFQLRLVNKRKSGRSLEYDFIVNSNTHEYELLSTTKQEEESSSNGLETPEMLQGLTTFNLGTSNKQKLAKDQVALPFLEAQSFGQGGAIVYEYEKDDDYDEEDPYEDPF
percent less co-precipitated than with wild-type Elp1–GFP (densitometry) [2]: 30%
